Laboratory results: patent publication US20240010695A1 (ASHER BIOTHERAPEUTICS, published 2024)

Molecular target: Wild type IL-10 dimer fused to xhCD8b (format E) (Homo sapiens (Human), UniProt P22301 19-178; P22301 19-178)
Test: SPR 37 C; fusion captured via Fc, IL-10RA ECD analyte
Experimental: To determine the affinities with IL-10RA, antibody or fusion proteins were captured onto the CM4 sensor chip via their Fc by covalently anti-human Fc antibody (Southern Biotech, Catalog No. 2081-01). Protein was not captured on flow cell 1 to serve as a reference surface. In-house generated human IL-10RA ECD, diluted in HBS-P+ buffer supplemented with 1 g/L BSA, at concentrations of 8, 40, 200, 1000, and 5000 nM, or buffer was flowed over the surface-captured fusion protein for 2 minutes at 30 μL/min. Dissociation was monitored for 4-5 minutes, and the anti-hIgG-Fc surface was regenerated with three 30-seconds injections of 75 mM phosphoric acid between analysis cycles. Binding data were analyzed by Biacore® Evaluation Software version 3.2 using a 1:1 Langmuir with mass transport model or by steady-state affinity analysis.
As shown in Example 3, fusion proteins comprising CD8 antibodies and IL-10 monomer polypeptides selectively activated CD8+ T cells over monocytes and CD4+ T cells. […] Amino acid substitutions and the amino acid sequences of representative mutant monomer IL-10 polypeptides that were evaluated are shown in Table 4A. […] In all cases, the IL-10 polypeptide was expressed as a fusion protein, with the antibody binding domain specified in column 2, and the format shown in parentheses, based on the schematics depicted in FIG. 6.

Sequence of Wild type IL-10 dimer fused to xhCD8b (format E) (P22301 19-178 limits assumed, chain 1 of 2): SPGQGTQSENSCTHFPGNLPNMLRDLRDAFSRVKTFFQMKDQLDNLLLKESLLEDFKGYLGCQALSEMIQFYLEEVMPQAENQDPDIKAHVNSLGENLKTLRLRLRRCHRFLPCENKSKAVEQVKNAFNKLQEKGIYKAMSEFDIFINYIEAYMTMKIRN
Sequence of Wild type IL-10 dimer fused to xhCD8b (format E) (P22301 19-178 limits assumed, chain 2 of 2): as the sequence (P22301 19-178 limits assumed, chain 1 of 2) above

B1: human IL-10RA ECD (receptor)
chain: HGTELPSPPSVWFEAEFFHHILHWTPIPNQSESTCYEVALLRYGIESWNSISNCSQTLSYDLTAVTLDLYHSNGYRARVRAVDGSRHSNWTVTNTRFSVDEVTLTVGSVNLEIHNGFILGKIQLPRPKMAPANDTYESIFSHFREYEIAIRKVPGNFTFTHKKVKHENFSLLTSGEVGEFCVQVKPSVASRSNKGMWSKEECISLTRQYFTVTN
notes: In-house generated ECD; A biotinylated form held the fusions on the chip in the IL-10RB assay
Question: Which Kd does the source give for B1 here?
Answer: 4.5 nM
